# In IntAct's records for PubMed 22921829:
# B1: E3 ubiquitin-protein ligase SMURF1 (Homo sapiens), Q9HCE7-1 (parent)
# chain: MSNPGTRRNGSSIKIRLTVLCAKNLAKKDFFRLPDPFAKIVVDGSGQCHSTDTVKNTLDPKWNQHYDLYVGKTDSITISVWNHKKIHKKQGAGFLGCVRLLSNAISRLKDTGYQRLDLCKLNPSDTDAVRGQIVVSLQTRDRIGTGGSVVDCRGLLENEGTVYEDSGPGRPLSCFMEEPAPYTDSTGAAAGGGNCRFVESPSQDQRLQAQRLRNPDVRGSLQTPQNRPHGHQSPELPEGYEQRTTVQGQVYFLHTQTGVSTWHDPRIPSPSGTIPGGDAAFLYEFLLQGHTSEPRDLNSVNCDELGPLPPGWEVRSTVSGRIYFVDHNNRTTQFTDPRLHHIMNHQCQLKEPSQPLPLPSEGSLEDEELPAQRYERDLVQKLKVLRHELSLQQPQAGHCRIEVSREEIFEESYRQIMKMRPKDLKKRLMVKFRGEEGLDYGGVAREWLYLLCHEMLNPYYGLFQYSTDNIYMLQINPDSSINPDHLSYFHFVGRIMGLAVFHGHYINGGFTVPFYKQLLGKPIQLSDLESVDPELHKSLVWILENDITPVLDHTFCVEHNAFGRILQHELKPNGRNVPVTEENKKEYVRLYVNWRFMRGIEAQFLALQKGFNELIPQHLLKPFDQKELELIIGGLDKIDLNDWKSNTRLKHCVADSNIVRWFWQAVETFDEERRARLLQFVTGSTRVPLQGFKALQGSTGAAGPRLFTIHLIDANTDNLPKAHTCFNRIDIPPYESYEKLYEKLLTAVEETCGFAVE
# B2: E3 ubiquitin-protein ligase NEDD4-like (Homo sapiens), Q96PU5-5 (parent)
# chain: MATGLGEPVYGLSEDEGESRILRVKVVSGIDLAKKDIFGASDPYVKLSLYVADENRELALVQTKTIKKTLNPKWNEEFYFRVNPSNHRLLFEVFDENRLTRDDFLGQVDVPLSHLPTEDPTMERPYTFKDFLLRPRSHKSRVKGFLRLKMAYMPKNGGQDEENSDQRDDMEHGWEVVDSNDSASQHQEELPPPPLPPGWEEKVDNLGRTYYVNHNNRTTQWHRPSLMDVSSESDNNIRQINQEAAHRRFRSRRHISEDLEPEPSEGGDVPEPWETISEEVNIAGDSLGLALPPPPASPGSRTSPQELSEELSRRLQITPDSNGEQFSSLIQREPSSRLRSCSVTDAVAEQGHLPPPSVAYVHTTPGLPSGWEERKDAKGRTYYVNHNNRTTTWTRPIMQLAEDGASGSATNSNNHLIEPQIRRPRSLSSPTVTLSAPLEGAKDSPVRRAVKDTLSNPQSPQPSPYNSPKPQHKVTQSFLPPGWEMRIAPNGRPFFIDHNTKTTTWEDPRLKFPVHMRSKTSLNPNDLGPLPPGWEERIHLDGRTFYIDHNSKITQWEDPRLQNPAITGPAVPYSREFKQKYDYFRKKLKKPADIPNRFEMKLHRNNIFEESYRRIMSVKRPDVLKARLWIEFESEKGLDYGGVAREWFFLLSKEMFNPYYGLFEYSATDNYTLQINPNSGLCNEDHLSYFTFIGRVAGLAVFHGKLLDGFFIRPFYKMMLGKQITLNDMESVDSEYYNSLKWILENDPTELDLMFCIDEENFGQTYQVDLKPNGSEIMVTNENKREYIDLVIQWRFVNRVQKQMNAFLEGFTELLPIDLIKIFDENELELLMCGLGDVDVNDWRQHSIYKNGYCPNHPVIQWFWKAVLLMDAEKRIRLLQFVTGTSRVPMNGFAELYGSNGPQLFTIEQWGSPEKLPRAHTCFNRLDLPPYETFEDLREKLLMAVENAQGFEGVD
# B3: Mothers against decapentaplegic homolog 7 (Homo sapiens), O15105 (parent)
# chain: MFRTKRSALVRRLWRSRAPGGEDEEEGAGGGGGGGELRGEGATDSRAHGAGGGGPGRAGCCLGKAVRGAKGHHHPHPPAAGAGAAGGAEADLKALTHSVLKKLKERQLELLLQAVESRGGTRTACLLLPGRLDCRLGPGAPAGAQPAQPPSSYSLPLLLCKVFRWPDLRHSSEVKRLCCCESYGKINPELVCCNPHHLSRLCELESPPPPYSRYPMDFLKPTADCPDAVPSSAETGGTNYLAPGGLSDSQLLLEPGDRSHWCVVAYWEEKTRVGRLYCVQEPSLDIFYDLPQGNGFCLGQLNSDNKSQLVQKVRSKIGCGIQLTREVDGVWVYNRSSYPIFIKSATLDNPDSRTLLVHKVFPGFSIKAFDYEKAYSLQRPNDHEFMQQPWTGFTVQISFVKGWGQCYTRQFISSCPCWLEVIFNSR
# B4: Mothers against decapentaplegic homolog 3 (Homo sapiens), P84022 (parent)
# chain: MSSILPFTPPIVKRLLGWKKGEQNGQEEKWCEKAVKSLVKKLKKTGQLDELEKAITTQNVNTKCITIPRSLDGRLQVSHRKGLPHVIYCRLWRWPDLHSHHELRAMELCEFAFNMKKDEVCVNPYHYQRVETPVLPPVLVPRHTEIPAEFPPLDDYSHSIPENTNFPAGIEPQSNIPETPPPGYLSEDGETSDHQMNHSMDAGSPNLSPNPMSPAHNNLDLQPVTYCEPAFWCSISYYELNQRVGETFHASQPSMTVDGFTDPSNSERFCLGLLSNVNRNAAVELTRRHIGRGVRLYYIGGEVFAECLSDSAIFVQSPNCNQRYGWHPATVCKIPPGCNLKIFNNQEFAALLAQSVNQGFEAVYQLTRMCTIRMSFVKGWGAEYRRQTVTSTPCWIELHLNGPLQWLDKVLTQMGSPSIRCSSVS
# Variants of: B1
# Details: with smad7_human SMAD7, O15105
row,Variant,effect of a mutation on the interaction
1,Q247E;Q249E,decreasing interaction strength
2,R243E,decreasing interaction strength
3,R243A,decreasing interaction strength
4,Q249E,decreasing interaction strength

# Variants of: B2
# Details: with smad7_human SMAD7, O15105
row,Variant,effect of a mutation on the interaction
1,R380E,decreasing interaction strength
2,K378E;R380E,decreasing interaction strength
3,K378E,decreasing interaction strength

# Variants of: B3
# Details: with NEDD4L
row,Variant,effect of a mutation on the interaction
1,P208A;P209A,disrupting interaction strength

# Variants of: B4
# Details: with NEDD4L
row,Variant,effect of a mutation on the interaction
1,T179A,disrupting interaction strength
2,P181A;P182A,disrupting interaction strength
